Test results: PMC314469, “Protein Interaction Networks by Proteome Peptide Scanning” (PLoS Biology, 2004)
Each block holds one binder with its values, some of them ahead of it.

Target: T1, Abp1 SH3 (ABP1_YEAST), P15891
T1 chain: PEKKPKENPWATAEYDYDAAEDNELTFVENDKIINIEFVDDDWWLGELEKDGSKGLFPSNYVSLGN
Experiment: SPOT array

normalised SPOT signal, Boehringer light units (BLU); mean over the file's lines of this peptide: 128
B1: YPL243W 519-532 (peptide)
chain: PTDIQLKNLFPLKP

normalised SPOT signal, Boehringer light units (BLU); mean over the file's lines of this peptide: 49.2
B2: YLL022C 355-367 (peptide)
chain: PTTSIGFPALEKP

normalised SPOT signal, Boehringer light units (BLU); mean over the file's lines of this peptide: 81
B3: YHR001W-A 64-76 (peptide)
chain: PTLEDHTPPEDKP

normalised SPOT signal, Boehringer light units (BLU); mean over the file's lines of this peptide: 698
B4: YLR174W 115-127 (peptide)
chain: PRIPRLVPQWEKP

normalised SPOT signal, Boehringer light units (BLU); mean over the file's lines of this peptide: 1700
B5: YLR304C 734-746 (peptide)
chain: PVTMRVHPKNGKP

normalised SPOT signal, Boehringer light units (BLU); mean over the file's lines of this peptide: 2670
B6: YHL029C 305-318 (peptide)
chain: PLPFELRSKLPTKP

normalised SPOT signal, Boehringer light units (BLU); mean over the file's lines of this peptide: 37.3
B7: YOR249C 37-50 (peptide)
chain: PTAVFLRLISPTRP

normalised SPOT signal, Boehringer light units (BLU); mean over the file's lines of this peptide: 234
B8: YOR117W 130-142 (peptide)
chain: PMVGLVDPDKLKP

normalised SPOT signal, Boehringer light units (BLU); mean over the file's lines of this peptide: 0
B9: YCR034W 17-29 (peptide)
chain: PQLHDYLPTLERP

normalised SPOT signal, Boehringer light units (BLU); mean over the file's lines of this peptide: 200
B10: YCR094W 11-23 (peptide)
chain: PPLTKEGPTSKKP

normalised SPOT signal, Boehringer light units (BLU); mean over the file's lines of this peptide: 97.2
B11: YMR047C 1028-1041 (peptide)
chain: PKTSIIYANLPNRP

normalised SPOT signal, Boehringer light units (BLU); mean over the file's lines of this peptide: 790
B12: YGR271W 1358-1371 (peptide)
chain: PVFMAIKQHSPDKP

normalised SPOT signal, Boehringer light units (BLU); mean over the file's lines of this peptide: 192
B13: YLR176C 127-139 (peptide)
chain: PPLIGSGPGSHKP

normalised SPOT signal, Boehringer light units (BLU); mean over the file's lines of this peptide: 188
B14: YIR006C 205-218 (peptide)
chain: PPPQQAQSLQPLKP

normalised SPOT signal, Boehringer light units (BLU); mean over the file's lines of this peptide: 127
B15: YOL061W 103-115 (peptide)
chain: PYTAKGAPIISKP

normalised SPOT signal, Boehringer light units (BLU); mean over the file's lines of this peptide: 110
B16: YMR016C 338-351 (peptide)
chain: PLYDGNSITPPVKP

normalised SPOT signal, Boehringer light units (BLU); mean over the file's lines of this peptide: 62.2
B17: YDR158W 295-308 (peptide)
chain: PKQTIHVLEQPDRP

normalised SPOT signal, Boehringer light units (BLU); mean over the file's lines of this peptide: 41.4
B18: YPL188W 113-126 (peptide)
chain: QDFKSPLENDPNRP

normalised SPOT signal, Boehringer light units (BLU); mean over the file's lines of this peptide: 98.6
B19: YJL200C 564-577 (peptide)
chain: PNSDRLQLLEPFKP

normalised SPOT signal, Boehringer light units (BLU); mean over the file's lines of this peptide: 383
B20: YDL019C 243-256 (peptide)
chain: PLDLVKNIKLPAKP

normalised SPOT signal, Boehringer light units (BLU); mean over the file's lines of this peptide: 117
B21: YOR181W 300-312 (peptide)
chain: QAPSMGIPQQNRP

normalised SPOT signal, Boehringer light units (BLU); mean over the file's lines of this peptide: 32.6
B22: YML065W 327-340 (peptide)
chain: PKKRGRKPKDPSKP

normalised SPOT signal, Boehringer light units (BLU); mean over the file's lines of this peptide: 520
B23: YNL009W 115-127 (peptide)
chain: PKIPRLVPHWEKP

normalised SPOT signal, Boehringer light units (BLU); mean over the file's lines of this peptide: 64.1
B24: YER086W 492-505 (peptide)
chain: PNERIISFEFPERP

normalised SPOT signal, Boehringer light units (BLU); mean over the file's lines of this peptide: 1630
B25: YGL035C 180-192 (peptide)
chain: PKTMAKIPVSVKP

normalised SPOT signal, Boehringer light units (BLU); mean over the file's lines of this peptide: 3910
B26: YDL066W 131-143 (peptide)
chain: PRIPRLVPRWEKP

normalised SPOT signal, Boehringer light units (BLU); mean over the file's lines of this peptide: 14100
B27: YPL243W 529-541 (peptide)
chain: PLKPKMLPIPSKP

normalised SPOT signal, Boehringer light units (BLU); mean over the file's lines of this peptide: 0
B28: YER132C 1035-1047 (peptide)
chain: QDYGSISPSNIRP

normalised SPOT signal, Boehringer light units (BLU); mean over the file's lines of this peptide: 32.3
B29: YKR001C 550-562 (peptide)
chain: PRQVAVDPKTGKP

normalised SPOT signal, Boehringer light units (BLU); mean over the file's lines of this peptide: 206
B30: YML113W 199-211 (peptide)
chain: PYNYLQRPFIVKP

normalised SPOT signal, Boehringer light units (BLU); mean over the file's lines of this peptide: -0
B31: YOL019W 423-435 (peptide)
chain: PRETAAGPANIRP

normalised SPOT signal, Boehringer light units (BLU); mean over the file's lines of this peptide: 1330
B32: YNL137C 417-429 (peptide)
chain: PKKPFFTPWKPRP

normalised SPOT signal, Boehringer light units (BLU); mean over the file's lines of this peptide: 4090
B33: YPR118W 222-234 (peptide)
chain: PRMGHVFPLETRP

normalised SPOT signal, Boehringer light units (BLU); mean over the file's lines of this peptide: 920
B34: YLR304C 557-570 (peptide)
chain: PTSDRLQLLKPFKP

normalised SPOT signal, Boehringer light units (BLU); mean over the file's lines of this peptide: 86.5
B35: YNL139C 1426-1438 (peptide)
chain: PSNDRSAPKNIKP

normalised SPOT signal, Boehringer light units (BLU); mean over the file's lines of this peptide: 96.3
B36: YDL064W 59-72 (peptide)
chain: PITVEYPNEYPSKP

normalised SPOT signal, Boehringer light units (BLU); mean over the file's lines of this peptide: 67.5
B37: YLR263W 598-611 (peptide)
chain: QDKRNLRSNAPTKP

normalised SPOT signal, Boehringer light units (BLU); mean over the file's lines of this peptide: 128
B38: YPL204W 411-423 (peptide)
chain: PQQLQQQPNGQRP

normalised SPOT signal, Boehringer light units (BLU); mean over the file's lines of this peptide: 287
B39: YBL013W 258-270 (peptide)
chain: PQNRVQAPTAYKP

normalised SPOT signal, Boehringer light units (BLU); mean over the file's lines of this peptide: 165
B40: YOR299W 396-408 (peptide)
chain: QEAVNSSPSEFRP

normalised SPOT signal, Boehringer light units (BLU); mean over the file's lines of this peptide: 88.1
B41: YBR189W 5-18 (peptide)
chain: PRTYSKTYSTPKRP

normalised SPOT signal, Boehringer light units (BLU); mean over the file's lines of this peptide: 38700
B42: YDR266C 579-591 (peptide)
chain: PKPKVQIPGLNRP

normalised SPOT signal, Boehringer light units (BLU); mean over the file's lines of this peptide: 6140
B43: YDR389W 56-68 (peptide)
chain: PTTLKRPPLSSRP

normalised SPOT signal, Boehringer light units (BLU); mean over the file's lines of this peptide: 46.8
B44: YLR224W 322-335 (peptide)
chain: PRDTIIGHGLPYKP

normalised SPOT signal, Boehringer light units (BLU); mean over the file's lines of this peptide: 0
B45: YPR129W 112-124 (peptide)
chain: QAHVQTNPQVPKP

normalised SPOT signal, Boehringer light units (BLU); mean over the file's lines of this peptide: 23.6
B46: YML109W 615-628 (peptide)
chain: PSVVSSSESQPSKP

normalised SPOT signal, Boehringer light units (BLU); mean over the file's lines of this peptide: 1040
B47: YER064C 414-427 (peptide)
chain: PLVSSNKQSNPMRP

normalised SPOT signal, Boehringer light units (BLU); mean over the file's lines of this peptide: 183
B48: YDL095W 15-28 (peptide)
chain: PVPELDIKQGPVRP

normalised SPOT signal, Boehringer light units (BLU); mean over the file's lines of this peptide: 114
B49: YBR108W 580-593 (peptide)
chain: QEDPISNFLPPPKP

normalised SPOT signal, Boehringer light units (BLU); mean over the file's lines of this peptide: 479
B50: YDR464W 340-353 (peptide)
chain: PVSSRKAVEPPRKP

normalised SPOT signal, Boehringer light units (BLU); mean over the file's lines of this peptide: 146
B51: YJR016C 466-478 (peptide)
chain: PRGAPGMPEMLKP

normalised SPOT signal, Boehringer light units (BLU); mean over the file's lines of this peptide: 117
B52: YMR109W 1073-1085 (peptide)
chain: PPPPPPPPPSSKP

normalised SPOT signal, Boehringer light units (BLU); mean over the file's lines of this peptide: 0
B53: YJL123C 260-272 (peptide)
chain: PNNNGITPVEKKP

normalised SPOT signal, Boehringer light units (BLU); mean over the file's lines of this peptide: 36.2
B54: YER172C 458-471 (peptide)
chain: PQYDEIHIPAPSKP

normalised SPOT signal, Boehringer light units (BLU); mean over the file's lines of this peptide: 2140
B55: YJL060W 83-95 (peptide)
chain: PMVNQYSPTRGRP

normalised SPOT signal, Boehringer light units (BLU); mean over the file's lines of this peptide: 94.4
B56: YCL008C 82-95 (peptide)
chain: PVIMWVPSMYPVKP

normalised SPOT signal, Boehringer light units (BLU); mean over the file's lines of this peptide: 110000
B57: YIR003W 384-396 (peptide)
chain: PKRRAPPPVPKKP

normalised SPOT signal, Boehringer light units (BLU); mean over the file's lines of this peptide: 5500
B58: YPR091C 655-668 (peptide)
chain: PKMISNRRPVPRRP

normalised SPOT signal, Boehringer light units (BLU); mean over the file's lines of this peptide: 93.5
B59: YCR024C 376-388 (peptide)
chain: PVFVTDYPRLSKP
